In patent US20250236878A1 (priority 2019, published 2025):

B1: Endochitinase (ChiC) Bacillus thuringiensis immobilized enzyme (SEQ ID NO: 777) (protein, listed as Bacillus thuringiensis)
chain: DSPKQSQKIVGYFPSWGVYGRNYQVADIDASKLTHLNYAFADICWKGKHGNPSTHPDNPNKQTWNCKESGVPLQNKEVPNGTLVLGEPWADVTKSYPGSGTTWEDCDKYARCGNFGELKRLKAKYPHLKTIISVGGWTWSNRFSDMAADEKTRKVFAESTVAFLRAYGFDGVDLDWEYPGVETIPGGSYRPEDKQNFTLLLQDVRNALNKAGAEDGKQYLLTIASGASQRYADHTELKKISQILDWINIMTYDFHGGWEATSNHNAALYKDPNDPAANTNFYVDGAIDVYTNEGVPVDKLVLGVPFYGRGWKSCGKENNGQYQPCKPGSDGKLASKGTWDDYSTGDTGVYDYGDLTANYVNKNGFVRYWNDTAKVPYLYNATTGTFISYDDNESMKYKTDYIKTKGLSGAMFWELSGDCRTSPKYSCSGPKLLDTLVKELLGGPINQKDTEPPTNVKNIIVTNKTSSSVQLSWTASTDNVGVTEYEITAGEEKWSATTNSITIKNLKPNTEYTFSVIAKDASGNKSHPTALTVKTDEANTTPPDGNGTATFSVTSNWGSGYNFSIIIKNNGTIPIKNWKLEFDYSGNLTQVWDSKISSKTNNHYVITNAGWNGEIPPGGSITIGGAGTGNPAELLNAVISEN
modifications: immobilized
B2: SEQ ID NO: 732: β-1,3 endoglucanase, Paenibacillus species (protein)
chain: AETAGTTITSMSYFSTADGPIITKSGVGQASYGFVMPIFNGGSATWNDVAQDLGVKVKVNGSWVDIDSVSSFVYNQNWGHWNDGGFTGYWFTLSATTEIQLYSKANEVTLEYSLVFQNINKTTITAMTPTQGPQITAGFTGGAGFTYPIFNHDPAITYAAVADDLKVYVKPVNSSQWIDIDNNAASGWIYDQNFGQFTDGGGGYWFNVTESINVKLESKTSSTNIVYTISFNEPVRNSYVLTPYEGTTFTADASGAIGIPLPKIDGGAPIGTELGNFVYQININGQWVDLDNSSQSGFVYSANGYNNMSAANQWGYWADHIYGLWFQPIQVDMQIRIGYPLNGQAGGSVGSNFVNYTLIGNPDAPRPDVNDQEDIPIGTPNDSAIEGMNLIWQDEFNGTALDQSKWNYETGYYLNDDPNTWGWGNSELQHYTDRAQNVFVQDGKLNIKALNEPKSFPQDPSRYAQYSSGKINTKDHFSLKYGRVDFRAKLPTGNGIWPALWMLPQDNVYGTWASSGEIDVMEAKGRLPGSTSGAVHFGGQWPTNRYLSGEYHFPEGQTFANDYHVYSVVWEEDNIKWYVDGKFFFKVTRDQWYSAAAPNNPNAPFDQPFYLIMNLAIGGTFDGGRTPDPSDIPATMQVDYVRVYKEGEGGGQNPGNVPVTGVTVNPTTAQVEVGQSVQLNASVAPSNATNKQVTWSVSGSSIASVSPNGLVTGLAQGTTTVTATTADGNKAASATITVAPAPSTVIVIGDEVKGLKKIGDDLLFYVNGATFADLHYKVNNGGQLNVAMAPTGNGNYTYPVHNLKHGDTVEYFFTYNPGQGALDTPWQTYVHGVTQGTPE
modifications: Paenibacillus spp.
notes: β-1,3 endoglucanase, Paenibacillus species
B3: β-1,3-endoglucanase (bglH) Paenibacillus immobilized enzyme (SEQ ID NO: 732) (protein)
chain: B2 chain
modifications: immobilized; Paenibacillus spp.
B4: endochitinase (SEQ ID NO: 778): endochitinase as printed in b921; probably a misprint for SEQ ID NO: 777 (protein, listed as Serratia marcescens)
chain: MSTRKAVIGYYFIPTNQINNYTETDTSVVPFPVSNITPAKAKQLTHINFSFLDINSNLECAWDPATNDAKARDVVNRLTALKAHNPSLRIMFSIGGWYYSNDLGVSHANYVNAVKTPASRAKFAQSCVRIMKDYGFDGVDIDWEYPQAAEVDGFIAALQEIRTLLNQQTVADGRQALPYQLTIAGAGGAFFLSRYYSKLAQIVAPLDYINLMTYDLAGPWEKVTNHQAALFGDAAGPTFYNALREANLGWSWEELTRAFPSPFSLTVDAAVQQHLMMEGVPSAKIVMGVPFYGRAFKGVSGGNGGQYSSHSTPGEDPYPSTDYWLVGCEECVRDKDPRIASYRQLEQMLQGNYGYQRLWNDKTKTPYLYHAQNGLFVTYDDAESFKYKAKYIKQQQLGGVMFWHLGQDNRNGDLLAALDRYFNAADYDDSQLDMGTGLRYTGVGPGNLPIMTAPAYVPGTTYAQGALVSYQGYVWQTKWGYITSAPGSDSAWLKVGRVA
B5: SEQ ID NO: 772: β-1,3 endoglucanase, Cellulosimicrobium cellulans DK1 (protein)
chain: APGDLLWSDEFDGAAGSAPNPAVWNHETGAHGWGNAELQNYTASRANSALDGQGNLVITARREGDGSYTSARMTTQGKYQPQYGRIEARIQIPRGQGIWPAFWMLGGSFPGTPWPSSGEIDIMENVGFEPHRVHGTVHGPGYSGGSGITGMYQHPQGWSFADTFHTFAVDWKPGEITWFVDGQQFHRVTRASVGANAWVFDQPFFLILNVAVGGQWPGYPDGTTQLPQQMKVDYVRVYDNGSGSSNPGNPGTGLPTGTGAVRAANGMCIDVPWADPTDGNPVQIVTCSGNAAQTWTRGSDGTVRALGKCLDVRDGSTTRGAAVQVWTCNGTGAQKWAYDAGSKALRNPQSGLCLDATGGAPLHDGQRLQTWTCNGTTAQQWTL
modifications: Cellulosimicrobium cellulans strain DK-1
notes: β-1,3 endoglucanase, Cellulosimicrobium cellulans DK1
B6: β-1,3-endoglucanase (DK-1) Cellulosimicrobium cellulans (SEQ ID NO: 772) (protein)
chain: B5 chain
modifications: Cellulosimicrobium cellulans strain DK-1

Test system: Cladosporium cladosporioides
Type: in vivo

Molecule	Observed mold growth spots (out of 18 inoculated) (6 days)	Percent of mold growth relative to surfactant only control (6 days)	mold growth relative to the surfactant only control (in vivo)	further results
B1	15 spots (out of 18 inoculated)	83%		
B2			61%	
B3	11 spots (out of 18 inoculated)	61%		
B4			83%	
B5				mold growth compared to the surfactant control treatment (in vivo): 85%
B6	12 spots (out of 18 inoculated)			Percent of mold growth relative to control (mold only) (6 days): 85%
